Data as given in article doi:10.1101/2019.12.18.881029 (bioRxiv, 2019).

Each binder was assayed against recombinant human TNFa (Shanghai Primegene Bi-Tech) (Homo sapiens, UniProt P01375).
Chain of recombinant human TNFa (Shanghai Primegene Bi-Tech) (P01375 whole entry): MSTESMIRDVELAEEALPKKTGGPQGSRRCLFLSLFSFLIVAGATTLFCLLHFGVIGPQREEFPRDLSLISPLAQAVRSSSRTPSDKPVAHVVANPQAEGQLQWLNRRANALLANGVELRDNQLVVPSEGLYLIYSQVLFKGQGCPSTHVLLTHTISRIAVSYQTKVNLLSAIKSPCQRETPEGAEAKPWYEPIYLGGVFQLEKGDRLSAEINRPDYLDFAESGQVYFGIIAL

binding result | Binder
binds | 101 (antibody, V domains shown) VH: QSVKESEGGLFKPTDTLTLTCTVSGFSLSRYGVSWVRQAPGSGLQWIGAIGETGRAYYANWAKSRSTITRNTNVNTVTLKMTSLTAADTATYFCARGEEFNNGWGAFNIWGPGTLVTVSS VL: AYDMTQTPASVSEPVGGTVTIKCQASENIYTSLAWYQQKPGQPPKLLIYSASTLASGVPSRFKGSGSGTEFTLTISDLECADAASYYCQQGFATSNVENPFGGGTEVVVK
binds | 877 (antibody, V domains shown) VH: QSVKESEGGLFKPTDTLTLTCTVSGFSLSRYGVTWVRQAPGNGLQWIGTIGETGRSYYASWAKSRSTVTRNTNENTVTLKMTSLTAADTATYFCARGELFNNGWGAFNIWGPGTLVTVSS VL: AYDMTQTPASVSEPVGGTVTIKCQASENIYSSLAWYQQKPGQPPKLLIYSASTLASGVSSRFKGSGSGTEFTLTISGVQCEDAATYYCQQGFGTNNVENPFGGGTEVVVK
binds | 810 (antibody, V domains shown) VH: QSVKESEGGLFKPADTLTLTCTVSGFSLSRYGVSWVRQAPGNGLEWIGTIGEAGRAYYANWARSRSTITRTTNLNTVTLTMTSLTAADTATYFCARGEVFNNGWGAFNIWGPGTLVTVSS VL: AYDMTQTPASVSEPVGGTVTIKCQASESIYSGLAWYQQKPGQPPKLLIYQASTLASGVSSRFKGSGSGTDFTLAISDLECADAATYYCQQGFGTSNVENPFGGGSEVVVK
